From the supplement of paper PMC7877785
± gives the uncertainty stated by the source.

Test: self-splicing fitness, log relative to wild type (ln ratio); higher = more splicing; Tetrahymena group I intron in knt gene, E. coli kanamycin selection, DiMSum; sequences stand for … in CUCUCU…GGAGGGAAAAGUUAUCAGGCAUGCACCUGGUAGCUAGUCUUUAAACCAAUAGAUUGCAUCGGUUUAAAAGGCAAGACCGUCAAAUUGCGGGAAAGGGGUCAACAGCCGUUCAGUACCAAGUCUCAGGGGAAACUUUGAGAUGGCCUUGCAAAGGGUAUGGUAAUAAGCUGACGGACAUGGUCCUAACCACGCAGCCAAGUCCUAAGUCAACAGAUCUUCUGUUGAUAUGGAUGCAGUUCACAGACUAAAUGUCGGUCGGGGAAGAUGUAUUCUUCUCAUAAGAUAUAGUCGGACCUCUCCUUAAUGGGAGCUAGCGGAUGAAGUGAUGCAACACUGGAGCCGCUGGGAACUAAUUUGUAUGCGAAAGUAUAUUGAUUAGUUUUGGAGUACUCGUGGUCG
Outline: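 DiMSum derived fitness as the error-weighted combination of fold changes across replicates, kanamycin versus no kanamycin, normalised to wild type. E. coli BL21(DE3) held the library, which randomised all eight P1ex-region intron nucleotides within the knt kanamycin-resistance gene on pET-22b(+). Six replicate transformations grew overnight at 37°C or 30°C on LB agar with or without 25 μg/mL kanamycin, also containing 100 μg/mL carbenicillin, 50 μM IPTG and 0.2% rhamnose, and pooled colonies were amplicon-sequenced on an Illumina HiSeq 2500.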

Row | Sequence | self-splicing fitness (ln) (30 °C) | self-splicing fitness (ln) (37 °C)
1 | AUUUAGCAAUAUUACGUUUC | -2.86 ± 0.27 | -1.91 ± 0.34
2 | CAAAAGCAAUAUUACGAAUC | -4.86 ± 0.38 | -2.71 ± 0.21
3 | CAAAAGCAAUAUUACGACAC | -3.37 ± 0.19 | -1.01 ± 0.15
4 | CAAAAGCAAUAUUACGAGAU | -3.7 ± 0.2 | -2.21 ± 0.16
5 | CAAAAGCAAUAUUACGAGUU | -3.02 ± 0.15 | -2.46 ± 0.16
6 | CAAAAGCAAUAUUACGCAAC | -2.59 ± 0.16 | -2.53 ± 0.27
7 | CAAAAGCAAUAUUACGCAGC | -3.68 ± 0.16 | -2.36 ± 0.16
8 | CAAAAGCAAUAUUACGCAGG | -2.51 ± 0.1 | -1.24 ± 0.087
9 | CAAAAGCAAUAUUACGCAUC | -3.35 ± 0.11 | -1.52 ± 0.12
10 | CAAAAGCAAUAUUACGCCCG | -0.0339 ± 0.13 | 0.354 ± 0.15
11 | CAAAAGCAAUAUUACGCGAA | -3.36 ± 0.23 | -1.3 ± 0.17
12 | CAAAAGCAAUAUUACGCGAG | -2.58 ± 0.098 | -1.06 ± 0.078
13 | CAAAAGCAAUAUUACGCGGG | -2.38 ± 0.11 | -1.87 ± 0.13
14 | CAAAAGCAAUAUUACGGACA | -2.21 ± 0.15 | -1.64 ± 0.17
15 | CAAAAGCAAUAUUACGGAGU | -3.64 ± 0.14 | -2.56 ± 0.16
16 | CAAAAGCAAUAUUACGGCAU | -1.85 ± 0.11 | -1.4 ± 0.14
17 | CAAAAGCAAUAUUACGGGUA | -2.22 ± 0.13 | -2.12 ± 0.15
18 | CAAAAGCAAUAUUACGUAAU | -3.57 ± 0.15 | -3.04 ± 0.18
19 | CAAAAGCAAUAUUACGUCCG | -0.119 ± 0.082 | 0.175 ± 0.1
20 | CAAAAGCAAUAUUACGUCUG | -0.838 ± 0.042 | -0.0271 ± 0.052
21 | CAAAAGCAAUAUUACGUUUU | -3.57 ± 0.12 | -2.79 ± 0.16
22 | CAACAGCAAUAUUACGAACC | -2.27 ± 0.25 | -1.62 ± 0.22
23 | CAACAGCAAUAUUACGAAGG | -0.969 ± 0.059 | -0.0092 ± 0.078
24 | CAACAGCAAUAUUACGACAG | -0.131 ± 0.073 | 0.499 ± 0.09
25 | CAACAGCAAUAUUACGACGC | -0.56 ± 0.065 | -0.0606 ± 0.085

Row | Sequence | self-splicing fitness (ln) (30 °C) | self-splicing fitness (ln) (37 °C)
26 | CAACAGCAAUAUUACGAGCA | -2.97 ± 0.15 | -1.01 ± 0.11
27 | CAACAGCAAUAUUACGCAGA | -3.45 ± 0.14 | -1.35 ± 0.075
28 | CAACAGCAAUAUUACGCCAG | -1.4 ± 0.11 | -0.809 ± 0.14
29 | CAACAGCAAUAUUACGCGAG | -2.29 ± 0.089 | -0.359 ± 0.066
30 | CAACAGCAAUAUUACGCGCU | -3.18 ± 0.23 | -1.97 ± 0.19
31 | CAACAGCAAUAUUACGCUCG | -0.822 ± 0.072 | -0.727 ± 0.1
32 | CAACAGCAAUAUUACGCUGU | -2.11 ± 0.2 | -2.65 ± 0.26
33 | CAACAGCAAUAUUACGCUUU | -2.5 ± 0.17 | -2.54 ± 0.2
34 | CAACAGCAAUAUUACGGAUU | -2.92 ± 0.13 | -1.94 ± 0.14
35 | CAACAGCAAUAUUACGGCAG | -0.117 ± 0.069 | -0.00847 ± 0.076
36 | CAACAGCAAUAUUACGGGGG | -2.07 ± 0.13 | -1.08 ± 0.1
37 | CAACAGCAAUAUUACGGUCA | -1.16 ± 0.066 | -0.339 ± 0.069
38 | CAACAGCAAUAUUACGUAGA | -2.68 ± 0.081 | -1.18 ± 0.081
39 | CAACAGCAAUAUUACGUCUA | -1.06 ± 0.053 | -0.786 ± 0.055
40 | CAACAGCAAUAUUACGUGAC | -4.28 ± 0.22 | -2.23 ± 0.15
41 | CAACAGCAAUAUUACGUGAG | -0.531 ± 0.049 | -0.233 ± 0.07
42 | CAACAGCAAUAUUACGUUAA | -2.36 ± 0.11 | -2.16 ± 0.12
43 | CAACAGCAAUAUUACGUUAC | -3.99 ± 0.21 | -2.44 ± 0.14
44 | CAACAGCAAUAUUACGUUAU | -3.16 ± 0.13 | -1.94 ± 0.13
45 | CAACAGCAAUAUUACGUUGU | -4.21 ± 0.18 | -3.06 ± 0.16
46 | CAACAGCAAUAUUACGUUUC | -3.28 ± 0.14 | -2.33 ± 0.16
47 | CAAGAGCAAUAUUACGAAAG | -1.52 ± 0.12 | -1.64 ± 0.16
48 | CAAGAGCAAUAUUACGAACU | -3.41 ± 0.27 | -2.11 ± 0.26
49 | CAAGAGCAAUAUUACGACGC | – | -1.56 ± 0.32
50 | CAAGAGCAAUAUUACGACUA | -3.01 ± 0.23 | -2.47 ± 0.21

Row | Sequence | self-splicing fitness (ln) (30 °C) | self-splicing fitness (ln) (37 °C)
51 | CAAGAGCAAUAUUACGAGAC | -2.43 ± 0.37 | -1.93 ± 0.35
52 | CAAGAGCAAUAUUACGCCAG | -1.92 ± 0.24 | -2 ± 0.41
53 | CAAGAGCAAUAUUACGCCUU | -3.52 ± 0.32 | -2.57 ± 0.41
54 | CAAGAGCAAUAUUACGCGAU | -2.62 ± 0.22 | -2.51 ± 0.49
55 | CAAGAGCAAUAUUACGCUAU | -3.62 ± 0.38 | -2.19 ± 0.27
56 | CAAGAGCAAUAUUACGGGCA | -2.96 ± 0.24 | -1.79 ± 0.23
57 | CAAGAGCAAUAUUACGGGUU | -3.54 ± 0.18 | -3.25 ± 0.23
58 | CAAGAGCAAUAUUACGGUGU | -3.52 ± 0.15 | -2.08 ± 0.17
59 | CAAGAGCAAUAUUACGUAUG | -3.02 ± 0.13 | -1.36 ± 0.15
60 | CAAGAGCAAUAUUACGUCCC | – | -1.59 ± 0.28
61 | CAAGAGCAAUAUUACGUCUA | -2.41 ± 0.13 | -1.56 ± 0.11
62 | CAAGAGCAAUAUUACGUCUC | -3.6 ± 0.17 | -2.73 ± 0.18
63 | CAAGAGCAAUAUUACGUCUG | -1.45 ± 0.15 | -0.511 ± 0.16
64 | CAAUAGCAAUAUUACGAGAU | -2.72 ± 0.12 | -2.82 ± 0.17
65 | CAAUAGCAAUAUUACGAGGU | -4.24 ± 0.28 | -1.93 ± 0.21
66 | CAAUAGCAAUAUUACGAUGG | -1.09 ± 0.074 | -0.114 ± 0.096
67 | CAAUAGCAAUAUUACGCACC | -3.66 ± 0.3 | –
68 | CAAUAGCAAUAUUACGCCAG | -1.21 ± 0.12 | -0.652 ± 0.15
69 | CAAUAGCAAUAUUACGCCGA | -2.61 ± 0.26 | -1.59 ± 0.17
70 | CAAUAGCAAUAUUACGCGGA | -3.59 ± 0.35 | -2.05 ± 0.16
71 | CAAUAGCAAUAUUACGCGUG | -1.93 ± 0.092 | -1.44 ± 0.095
72 | CAAUAGCAAUAUUACGCUCU | -3.28 ± 0.24 | -1.88 ± 0.17
73 | CAAUAGCAAUAUUACGGAUA | -3.03 ± 0.48 | -2.77 ± 0.35
74 | CAAUAGCAAUAUUACGGCGG | 0.429 ± 0.11 | -0.0335 ± 0.14
75 | CAAUAGCAAUAUUACGGCUA | -2.26 ± 0.22 | -2.1 ± 0.19
